# Reference: US6730779B2, “Antibody that specifically binds an Mch4 polypeptide” (IDUN Pharmaceuticals, Inc., priority 1996, dated 2004)
# T1: Mch4 (Homo sapiens, UniProt Q92851)
# T1 sequence (Q92851 194-372 isoform Q92851-2): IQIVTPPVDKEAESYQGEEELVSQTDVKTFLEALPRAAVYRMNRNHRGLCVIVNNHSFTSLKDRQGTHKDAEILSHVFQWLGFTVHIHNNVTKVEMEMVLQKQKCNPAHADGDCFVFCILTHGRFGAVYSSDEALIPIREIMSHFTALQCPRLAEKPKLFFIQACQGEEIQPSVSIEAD
# T1 sequence (Q92851 373-479 isoform Q92851-2): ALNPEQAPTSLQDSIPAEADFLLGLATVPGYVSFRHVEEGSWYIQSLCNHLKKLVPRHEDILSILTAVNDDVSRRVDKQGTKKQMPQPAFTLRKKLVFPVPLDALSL
# T2: CPP32 (Homo sapiens, UniProt P42574)
# T2 sequence (P42574 29-175 limits assumed): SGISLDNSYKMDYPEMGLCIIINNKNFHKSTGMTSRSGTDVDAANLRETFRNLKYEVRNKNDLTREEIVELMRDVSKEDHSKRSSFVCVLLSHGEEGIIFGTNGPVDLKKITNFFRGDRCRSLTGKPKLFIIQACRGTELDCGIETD
# T2 sequence (P42574 176-277 limits assumed): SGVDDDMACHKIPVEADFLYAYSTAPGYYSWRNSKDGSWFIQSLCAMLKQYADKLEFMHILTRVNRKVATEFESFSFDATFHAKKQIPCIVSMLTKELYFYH
# B1: proMch4: full length proMch4 (SEQ ID NO:2) expressed in Sf9 cells by recombinant baculovirus (protein)
# chain: MKSQGQHWYSSSDKNCKVSFREKLLIIDSNLGVQDVENLKFLCIGLVPNKKLEKSSSASDVFEHLLAEDLLSEEDPFFLAELLYIIRQKKLLQHLNCTKEEVERLLPTRQRVSLFRNLLYELSEGIDSENLKDMIFLLKDSLPKTEMTSLSFLAFLEKQGKIDEDNLTCLEDLCKTVVPKLLRNIEKYKREKAIQIVTPPVDKEAESYQGEEELVSQTDVKTFLEALPRAAVYRMNRNHRGLCVIVNNHSFTSLKDRQGTHKDAEILSHVFQWLGFTVHIHNNVTKVEMEMVLQKQKCNPAHADGDCFVFCILTHGRFGAVYSSDEALIPIREIMSHFTALQCPRLAEKPKLFFIQACQGEEIQPSVSIEADALNPEQAPTSLQDSIPAEADFLLGLATVPGYVSFRHVEEGSWYIQSLCNHLKKLVPRHEDILSILTAVNDDVSRRVDKQGTKKQMPQPAFTLRKKLVFPVPLDALSI
# Key:
# [1] = tested on: MCF7 human breast carcinoma cell line; experiment: Apoptosis of MCF7 cells after transfection with Mch5B expression vector; conditions: 36 hours after transfection, control plasmid pcDNA3 about 50%
# Mch4 = target: T1, Mch4; experiment: Continuous fluorometric assay of recombinant Mch4 protease activity (kinetic parameters); conditions: for Km: tetrapeptide substrate, bacterially expressed GST-Mch4, ICE buffer pH 7.5, room temperature
# Protocol: The kinetic properties of bacterially expressed recombinant Mch4 were determined using the tetrapeptide substrates DEVD-AMC and YVAD-AMC in a continuous fluorometric assay (Table I). […] After induction with IPTG, bacterial extracts were prepared from E. coli expressing the recombinant fusion proteins. The extracts were adsorbed to glutathione-Sepharose resin, washed several times and then analyzed by SDS-PAGE.
# The purified Mch4 GST-fusion protein was then used for further enzymatic analyses. The activity of Mch4 was measured using bacterial lysates prepared with ICE buffer (25 mM HEPES, 1 mM EDTA, 5 mM DTT, 0.1% CHAPS, 10% sucrose, pH 7.5) at room temperature (24-25° C.).
# CPP32 [2] = target: T2, CPP32; experiment: Kinetic comparison of CPP32 with tetrapeptide substrates; conditions: CPP32 versus Mch4
# CPP32 [3] = target: T2, CPP32; conditions: cited from earlier work
# Sf9 cells = experiment: Induction of apoptosis in Sf9 cells by recombinant baculovirus expression; type: cell-based; conditions: about 48 h postinfection
# Text: Briefly, Sf9 cells were infected with recombinant baculoviruses encoding full length proMch4 or full length CPP32 as a standard (Fernandes-Alnemri et al., J. Biol. Chem. 269:30761-30764 (1994)). Cells were then examined microscopically for morphological signs of apoptosis such as blebbing of the cytoplasmic membrane, condensation of nuclear chromatin and release of small apoptotic bodies. In addition the genomic DNA was examined for internucleosomal DNA cleavage.
# For the construction of transfer vectors and recombinant baculoviruses, the full length proMch4 in pBluescript KS+ was excised with Bam HI and EcoRI and subcloned into a Bam HI/EcoRI cut pVL1393 vector (Invitrogen, San Diego, Calif.) to generate the pVL-proMch4 transfer vector. The pVL-CPP32 transfer vector was made as described previously (Fernandes-Alnemri et al., supra (1994)). […]
# For-the induction of apoptosis in Sf9 cells by proMch4 and CPP32 cells were infected with recombinant baculoviruses AcNPV-proMch4 or AcNPV-CPP32. Apoptosis was measured microscopically by counting cells with the appropriate morphology (blebbing, nuclear condensation). Alternatively, internucleosomal DNA cleavage is assessed as a characteristic marker. […] The DNA samples were analyzed by electrophoresis in a 1.8% agarose gel containing ethidium bromide.
molecule,measurement,setting,value
"Mch5B: FADD-like domain B of proMch5 (amino acid 128-205), expressed from pcDNA3 vector in MCF7 cells",percentage of transfected cells that were apoptotic,[1],about 80%
DEVD-AMC: fluorescent tetrapeptide substrate representing the PARP cleavage site,Km,Mch4,130 µM
same,specificity of CPP32 for the substrate compared to Mch4 (ratio of Vmax/Km),CPP32 [2],> 500 fold
YVAD-AMC: tetrapeptide substrate representing the IL-1β cleavage site,KM for YVAD-AMC relative to KM for DEVD-AMC,CPP32 [3],> 35 fold
same,Km,Mch4,150 µM
CC(=O)N[C@@H](CC(=O)O)C(=O)N[C@@H](CCC(=O)O)C(=O)N[C@H](C(=O)N[C@H](C=O)CC(=O)O)C(C)C [DEVD-CHO],Ki,Mch4,0.014 µM
B1,"induction of apoptosis (morphology, internucleosomal DNA cleavage)",Sf9 cells,caused a significant percentage of the cells to undergo apoptosis
